From patent US20210261606A1 (JSR, published 2021) come the findings set out here.

In general, Kd refers to a measure of binding affinity in units of concentration. Read a high Kd as a looser complex. What is called koff is the first-order rate constant of dissociation. High values mean a short-lived complex, low ones a long-lived complex. For orientation: kon means a measure of how fast the partners come together. A lower kon goes with slower complex formation.

Sequences and labels used below:
B1: mutant VHH antibody 2bS13-97H (VHH)
VHH: QVQLVESGGGLVQAGGSLRLSCAASGISFAINNVAWYRQAPGKQRDLVALIDKYDTGNIADSVKGRFSISRDNAKNTAYLQMNSLKPEDTAVYYCNHLGTWIRAGPYWGQGTQVTVSS
B2: mutant VHH antibody 2bS13-102H (VHH)
VHH: QVQLVESGGGLVQAGGSLRLSCAASGISFAINNVAWYRQAPGKQRDLVALIDKYDTGNIADSVKGRFSISRDNAKNTAYLQMNSLKPEDTAVYYCNALGTWHRAGPYWGQGTQVTVSS
notes: also called 2b513-102H
B3: mutant VHH antibody 2bS13-100H (VHH)
VHH: QVQLVESGGGLVQAGGSLRLSCAASGISFAINNVAWYRQAPGKQRDLVALIDKYDTGNIADSVKGRFSISRDNAKNTAYLQMNSLKPEDTAVYYCNALGHWIRAGPYWGQGTQVTVSS
notes: also called 2bS13-100H/PB (as ligand on the carrier)

This assay concerns the target T1, trastuzumab Fab.
T1 construct: Made by papain digestion of trastuzumab (Herceptin); also called Fab of trastuzumab (Herceptin)
The assay is described as follows: Biacore SPR, trastuzumab Fab immobilized, VHH as analyte, pH 7.4. As for the experimental part: Those VHH antibodies were dispersed in HBS-EP (10 mM Hepes, 150 mM NaCl, 3 mM EDTA, and 0.005% Tween-20) to produce 12.5 to 150 nM VHH antibody solutions. The trastuzumab Fab prepared in Test Example 1 was immobilized on a Biacore sensor chip, and each VHH antibody solution was applied thereto. The measurements were performed under neutral conditions (pH 7.4). Curve fitting utilizing binding model was applied to association and dissociation behaviors, whereby evaluating the association rate constant (Kon), the dissociation rate constant (Koff), and the affinity (KD). Furthermore, this sensor chip was washed with an acidic eluent (10 mM Glycine-HCl+0.5M NaCl, pH 2.0) to measure a signal. From the obtained signal shape, the elution behavior of Ig by the acid was examined.
On to B1, for which the Kd turned out to be 205 pM, the dissociation rate constant (koff) stood at 0.004 s⁻¹ and the kon came out at 1.97e+07 M⁻¹ s⁻¹.

The molecule B2 had a Kd of 1440 pM, a koff of 0.0227 s⁻¹ and a kon of 1.58e+07 M⁻¹ s⁻¹.

Regarding B3, binding was characterised by a dissociation constant (Kd) of 376 pM, the koff stood at 0.0078 s⁻¹ and the kon is 2.08e+07 M⁻¹ s⁻¹.
